Results: patent US20230265175A1 (Merck Sharp & Dohme, published 2023)
Numbering of substitutions follows the chain as printed. In names and notes the source's numbering stands. Values belong to the binder of their own block, whether it stands above or below them.

How the values were obtained:
[1] = molecular target: recombinant phosphorylated tau protein monomer (35 AWM); assay: competitive ELISA, 35 AWM (1 ng); free tau-pS413 detected with biotinylated Ta1505-mIgG2a (competitor)
[2] = molecular target: T1, tau species in African Green Monkey (AGM) CSF (African Green Monkey); assay: competitive ELISA, fresh AGM CSF (75 µl of neat CSF); competitor biotinylated Ta1505-mIgG2a
T1 construct: also called Fresh African Green Monkey (AGM) CSF
Procedure: Binding affinities of various anti-tau-pS413 antibodies described herein for endogenous tau species were determined in brain homogenates and CSF samples from AD patients and preclinical models. Briefly, samples were pre-incubated with different concentrations of various anti-tau-pS413 antibodies, or respective isotype controls. Following a one-hour pre-incubation period, the antigen-antibody (Ag-Ab) mixture was added to plates pre-coated with a total tau capture antibody (Innotest ELISA kit).
Tissue homogenates were prepared using 1% sarkosyl buffer with several high-speed centrifugation steps to enrich for insoluble proteins including tau.

- EC50 [1]: 6.73 nM
- EC50 [2]: 2.08 nM
B1: HmzTa1505-hIgG4-S228P (antibody)
heavy: not shown
light: DIVMTQSPLSLPVTLGEPASISCRSSQNIVHSNANTYLEWYLQKPGQSPQLLIYTVSNRFSGVPDRFSGSGSGTDFTLKISRVEAEDLGVYYCFQGSHLPLTFGGGTKVEIKRTVAAPSVFIFPPSDEQLKSGTASVVCLLNNFYPREAKVQWKVDNALQSGNSQESVTEQDSKDSTYSLSSTLTLSKADYEKHKVYACEVTHQGLSSPVTKSFNRGEC

- EC50 [1]: 0.055 nM
- EC50 [2]: 0.008 nM
B2: V8-AFM-hIgG1-LALA-YTE (antibody)
heavy: EVQLVESGGGLVQPGGSLRLSCAASGFTFSSFALNWVRQAPGKGLEWVGHIRSETNNYVTFYAASVKGRFTVSRDDSQNTAYLQMNSLKTEDTATYYCVRRGPRDSWFGYWGQGTLVTVSSASTKGPSVFPLAPSSKSTSGGTAALGCLVKDYFPEPVTVSWNSGALTSGVHTFPAVLQSSGLYSLSSVVTVPSSSLGTQTYICNVNHKPSNTKVDKKVEPKSCDKTHTCPPCPAPEAAGGPSVFLFPPKPKDTLYITREPEVTCVVVDVSHEDPEVKFNWYVDGVEVHNAKTKPREEQYNSTYRVVSVLTVLHQDWLNGKEYKCKVSNKALPAPIEKTISKAKGQPREPQVYTLPPSRDELTKNQVSLTCLVKGFYPSDIAVEWESNGQPENNYKTTPPVLDSDGSFFLYSKLTVDKSRWQQGNVFSCSVMHEALHNHYTQKSLSLSPGK
light: B1 light with N28K, S32R, H98Y
notes: also called V8-AFM-IgG1-LALA-YTE
